According to PMC3258140 (Nucleic Acids Research, 2011):

Target: the molecule itself
Assay: crystal structure

B1: Thermotoga maritima Mre11^(H94Q, F291S) (residues L7M-385), nuclease deficient (enzyme)
chain: MKILHTSDWHLGVTSWTSSRPVDRREELKKALDKVVEEAEKREVDLILLTGDLLHSRNNPSVVALHDLLDYLKRMMRTAPVVVLPGNQDWKGLKLFGNFVTSISSDITFVMSFEPVDVEAKRGQKVRILPFPYPDESEALRKNEGDFRFFLESRLNKLYEEALKKEDFAIFMGHFTVEGLAGYAGIEQGREIIINRALIPSVVDYAALGHIHSFREIQKQPLTIYPGSLIRIDFGEEADEKGAVFVELKRGEPPRYERIDASPLPLKTLYYKKIDTSALKSIRDSCRNFPGYVRVVYEEDSGILPDLMGEIDNLVKIERKSRREIEEVLRESPEEFKEELDKLDYFELFKEYLKKREENHEKLLKILDELLDEVKKSEA
B1: binds.
